One experiment deals with co-activator AIB/ACTR (Homo sapiens, UniProt Q9Y6Q9). Briefly: GST-protein-interaction test. The class given is binding. The conditions noted are these: in vitro.
A further experiment addresses T1, androgen receptor (Homo sapiens, UniProt P10275).
T1 construct: expressed in transfected cells; host or cells: 293 cells
T1 sequence (P10275 1-920): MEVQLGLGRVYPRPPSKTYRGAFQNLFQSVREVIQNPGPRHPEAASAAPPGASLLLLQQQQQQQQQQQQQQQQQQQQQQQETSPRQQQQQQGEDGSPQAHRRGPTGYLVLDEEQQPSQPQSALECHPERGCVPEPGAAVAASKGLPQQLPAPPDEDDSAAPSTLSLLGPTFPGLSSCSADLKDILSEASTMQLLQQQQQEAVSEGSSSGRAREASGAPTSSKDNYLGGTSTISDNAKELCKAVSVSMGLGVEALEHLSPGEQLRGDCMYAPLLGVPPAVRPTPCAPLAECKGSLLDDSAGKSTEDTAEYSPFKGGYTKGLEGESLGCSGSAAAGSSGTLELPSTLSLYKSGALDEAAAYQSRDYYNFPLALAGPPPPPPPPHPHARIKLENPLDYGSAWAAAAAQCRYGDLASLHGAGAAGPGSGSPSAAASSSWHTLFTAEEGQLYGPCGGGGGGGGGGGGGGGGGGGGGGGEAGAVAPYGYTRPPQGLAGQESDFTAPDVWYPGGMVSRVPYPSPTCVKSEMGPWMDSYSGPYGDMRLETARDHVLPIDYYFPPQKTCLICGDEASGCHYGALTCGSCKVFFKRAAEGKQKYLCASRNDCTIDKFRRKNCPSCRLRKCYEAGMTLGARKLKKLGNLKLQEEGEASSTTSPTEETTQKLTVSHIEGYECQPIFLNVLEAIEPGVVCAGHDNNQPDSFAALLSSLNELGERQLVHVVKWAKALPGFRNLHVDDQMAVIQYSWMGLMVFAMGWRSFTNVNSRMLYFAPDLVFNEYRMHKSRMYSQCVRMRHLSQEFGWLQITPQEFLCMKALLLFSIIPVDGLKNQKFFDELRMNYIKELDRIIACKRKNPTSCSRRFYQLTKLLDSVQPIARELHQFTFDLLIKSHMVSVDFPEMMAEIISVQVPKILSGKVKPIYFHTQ
T1 sequence (Q14192 1-279 partner): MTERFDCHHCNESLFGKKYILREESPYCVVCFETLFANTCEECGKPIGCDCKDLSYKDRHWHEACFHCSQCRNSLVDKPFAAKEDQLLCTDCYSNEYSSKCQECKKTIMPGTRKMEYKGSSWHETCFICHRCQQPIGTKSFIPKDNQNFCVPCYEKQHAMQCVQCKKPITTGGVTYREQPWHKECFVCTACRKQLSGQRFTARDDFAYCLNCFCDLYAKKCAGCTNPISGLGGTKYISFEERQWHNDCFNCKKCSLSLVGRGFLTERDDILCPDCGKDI
Briefly: androgen receptor co-activation, MMTV-LUC or proteasin-Luc reporter, transient transfection. Particulars: 293 cells; with R1881; increasing amount of SLIM3-expression plasmid. The class given is cell-based.

For a further experiment, the target named is co-activator SRC1 (Homo sapiens, UniProt Q15788). Briefly: GST-protein-interaction test. In kind it is binding. Particulars: in vitro.
co-activator SRC1, sequence (Q15788 whole entry): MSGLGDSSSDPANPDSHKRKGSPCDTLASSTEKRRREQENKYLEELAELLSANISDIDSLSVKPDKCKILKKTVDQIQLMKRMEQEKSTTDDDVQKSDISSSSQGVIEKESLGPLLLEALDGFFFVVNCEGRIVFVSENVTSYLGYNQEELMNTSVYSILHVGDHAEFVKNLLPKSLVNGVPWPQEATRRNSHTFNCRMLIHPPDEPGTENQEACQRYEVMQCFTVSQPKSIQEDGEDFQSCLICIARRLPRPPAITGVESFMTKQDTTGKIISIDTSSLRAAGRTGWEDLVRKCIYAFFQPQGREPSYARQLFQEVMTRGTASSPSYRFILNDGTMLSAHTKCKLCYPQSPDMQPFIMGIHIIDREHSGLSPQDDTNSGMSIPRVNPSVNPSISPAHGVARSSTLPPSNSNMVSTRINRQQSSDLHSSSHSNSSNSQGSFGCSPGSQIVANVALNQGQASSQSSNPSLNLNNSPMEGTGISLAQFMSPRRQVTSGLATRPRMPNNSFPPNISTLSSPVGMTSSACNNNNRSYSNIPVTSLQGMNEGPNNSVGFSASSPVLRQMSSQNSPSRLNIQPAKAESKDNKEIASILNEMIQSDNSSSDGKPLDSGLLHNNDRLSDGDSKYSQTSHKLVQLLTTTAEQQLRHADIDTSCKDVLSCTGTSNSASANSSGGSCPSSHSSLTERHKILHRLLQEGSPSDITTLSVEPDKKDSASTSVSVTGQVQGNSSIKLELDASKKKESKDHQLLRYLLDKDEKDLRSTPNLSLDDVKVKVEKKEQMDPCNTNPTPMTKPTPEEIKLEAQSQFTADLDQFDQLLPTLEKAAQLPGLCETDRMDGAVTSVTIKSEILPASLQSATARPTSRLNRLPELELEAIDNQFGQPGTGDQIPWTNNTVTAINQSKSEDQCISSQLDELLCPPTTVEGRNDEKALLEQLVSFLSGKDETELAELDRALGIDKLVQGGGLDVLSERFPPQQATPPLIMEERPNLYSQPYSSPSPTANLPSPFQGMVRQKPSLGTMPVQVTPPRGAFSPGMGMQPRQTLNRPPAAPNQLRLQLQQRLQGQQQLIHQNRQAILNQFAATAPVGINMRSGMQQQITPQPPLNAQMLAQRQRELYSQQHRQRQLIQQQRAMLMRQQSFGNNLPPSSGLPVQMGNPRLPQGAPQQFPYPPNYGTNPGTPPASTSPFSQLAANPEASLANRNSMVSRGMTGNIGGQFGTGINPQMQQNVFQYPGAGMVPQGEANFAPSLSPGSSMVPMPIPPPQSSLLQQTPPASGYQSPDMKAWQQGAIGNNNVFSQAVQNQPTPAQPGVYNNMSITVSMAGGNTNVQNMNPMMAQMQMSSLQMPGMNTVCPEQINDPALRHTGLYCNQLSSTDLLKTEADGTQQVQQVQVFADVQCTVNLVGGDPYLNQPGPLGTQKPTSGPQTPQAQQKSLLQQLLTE
A further experiment relates to DNA. Briefly: DNA binding.
The target in a further experiment is T2, co-activator RIP140 (Homo sapiens, UniProt P48552).
T2 sequence (P48552 1-1158): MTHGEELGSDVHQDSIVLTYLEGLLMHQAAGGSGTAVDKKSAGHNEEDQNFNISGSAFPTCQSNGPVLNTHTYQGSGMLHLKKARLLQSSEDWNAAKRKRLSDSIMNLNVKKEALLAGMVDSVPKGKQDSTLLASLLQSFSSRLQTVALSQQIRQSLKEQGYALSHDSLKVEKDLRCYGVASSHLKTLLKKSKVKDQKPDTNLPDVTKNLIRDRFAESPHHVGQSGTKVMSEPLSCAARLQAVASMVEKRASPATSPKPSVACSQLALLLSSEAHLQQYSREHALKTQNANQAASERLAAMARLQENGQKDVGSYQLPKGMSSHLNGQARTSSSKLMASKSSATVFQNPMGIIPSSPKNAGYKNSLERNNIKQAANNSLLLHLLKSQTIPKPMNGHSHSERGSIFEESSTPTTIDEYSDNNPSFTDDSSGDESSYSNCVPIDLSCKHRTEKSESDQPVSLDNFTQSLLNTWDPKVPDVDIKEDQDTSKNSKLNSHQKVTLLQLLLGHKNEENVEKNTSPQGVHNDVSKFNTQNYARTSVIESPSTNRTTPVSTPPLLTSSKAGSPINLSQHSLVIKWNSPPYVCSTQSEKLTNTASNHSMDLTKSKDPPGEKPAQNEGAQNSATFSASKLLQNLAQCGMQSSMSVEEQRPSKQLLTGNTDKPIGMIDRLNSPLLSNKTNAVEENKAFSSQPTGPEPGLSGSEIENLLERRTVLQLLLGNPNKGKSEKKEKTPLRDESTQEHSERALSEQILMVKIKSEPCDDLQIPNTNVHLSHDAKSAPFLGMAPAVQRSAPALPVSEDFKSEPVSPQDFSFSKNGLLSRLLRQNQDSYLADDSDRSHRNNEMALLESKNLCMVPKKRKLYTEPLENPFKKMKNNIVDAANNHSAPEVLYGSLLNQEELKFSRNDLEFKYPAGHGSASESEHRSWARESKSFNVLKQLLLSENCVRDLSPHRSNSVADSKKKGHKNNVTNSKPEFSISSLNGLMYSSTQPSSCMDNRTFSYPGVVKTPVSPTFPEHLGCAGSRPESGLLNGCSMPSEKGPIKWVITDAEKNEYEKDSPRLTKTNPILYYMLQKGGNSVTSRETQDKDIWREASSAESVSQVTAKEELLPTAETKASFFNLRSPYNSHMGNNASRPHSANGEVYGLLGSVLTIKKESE
T2 sequence (Q14192 1-279 partner): T1 sequence (Q14192 1-279 partner)
Briefly: GST-protein-interaction test. The class given is binding. The conditions noted are these: in vitro.

The values that follow come from patent publication US20020004209A1, “Use of SLIM3 for binding to molecules” (Schering Aktiengesellschaft Patents, priority 1999, published 2002).

co-activator AIB/ACTR, sequence (Q9Y6Q9 whole entry, one chain of several): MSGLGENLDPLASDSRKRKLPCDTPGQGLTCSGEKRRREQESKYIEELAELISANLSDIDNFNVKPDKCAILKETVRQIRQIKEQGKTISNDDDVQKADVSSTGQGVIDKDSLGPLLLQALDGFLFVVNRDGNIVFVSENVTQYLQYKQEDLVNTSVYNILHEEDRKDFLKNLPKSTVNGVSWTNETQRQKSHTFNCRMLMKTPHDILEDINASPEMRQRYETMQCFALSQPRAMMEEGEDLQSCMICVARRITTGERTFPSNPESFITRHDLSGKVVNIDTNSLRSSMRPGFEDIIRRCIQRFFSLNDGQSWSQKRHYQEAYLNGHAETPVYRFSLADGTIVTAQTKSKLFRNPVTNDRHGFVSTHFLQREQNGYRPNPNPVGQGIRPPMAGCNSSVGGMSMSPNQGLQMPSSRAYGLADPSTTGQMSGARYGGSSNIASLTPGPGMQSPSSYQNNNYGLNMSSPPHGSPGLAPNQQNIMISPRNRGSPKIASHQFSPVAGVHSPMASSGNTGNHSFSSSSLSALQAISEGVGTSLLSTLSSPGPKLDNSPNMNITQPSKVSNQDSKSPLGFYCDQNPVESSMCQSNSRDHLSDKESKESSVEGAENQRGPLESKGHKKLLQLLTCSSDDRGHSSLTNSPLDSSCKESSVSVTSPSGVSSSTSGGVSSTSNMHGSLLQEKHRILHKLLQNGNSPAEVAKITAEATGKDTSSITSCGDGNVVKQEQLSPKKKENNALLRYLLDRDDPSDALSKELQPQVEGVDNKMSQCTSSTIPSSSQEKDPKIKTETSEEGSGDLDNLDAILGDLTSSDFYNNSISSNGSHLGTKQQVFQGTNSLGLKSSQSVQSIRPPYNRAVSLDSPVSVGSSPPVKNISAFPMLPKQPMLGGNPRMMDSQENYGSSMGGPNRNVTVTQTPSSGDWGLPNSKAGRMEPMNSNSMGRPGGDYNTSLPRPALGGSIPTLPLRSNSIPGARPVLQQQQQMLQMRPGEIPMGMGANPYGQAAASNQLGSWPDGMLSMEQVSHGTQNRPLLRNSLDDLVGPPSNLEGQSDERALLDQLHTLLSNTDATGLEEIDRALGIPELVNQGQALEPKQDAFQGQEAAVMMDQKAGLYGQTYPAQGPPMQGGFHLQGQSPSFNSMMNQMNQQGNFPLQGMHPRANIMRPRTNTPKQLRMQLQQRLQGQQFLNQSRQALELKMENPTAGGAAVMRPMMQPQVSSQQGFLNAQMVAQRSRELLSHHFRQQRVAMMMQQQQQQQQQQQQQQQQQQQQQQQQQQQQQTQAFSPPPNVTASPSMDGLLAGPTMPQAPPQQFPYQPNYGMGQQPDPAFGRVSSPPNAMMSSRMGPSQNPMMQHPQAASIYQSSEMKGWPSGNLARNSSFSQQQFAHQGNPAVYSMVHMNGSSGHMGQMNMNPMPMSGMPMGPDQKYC

“SLIM3: LIM-domain protein of 279 amino acids, co-activator for nuclear receptors AR and ERβ”: the figures for the interaction with co-activator entry with co-activator AIB/ACTR, with co-activator SRC1 and in the experiment with co-activator RIP140 were “interacts”, “no interaction” and “interacts”, respectively. In addition, in the experiment with androgen receptor, the “additional super-induction of the reporter gene” value is on record as “three-fold to five-fold”. The “binding to DNA” value in the experiment with DNA is given as “does not bind”.
